The text below walks through data of patent publication US20190055322A1.

In the test the target is PcrV of P. aeruginosa strain PA103 (on TTSS-induced bacteria) (Pseudomonas aeruginosa strain PA103). Description: cell-based or functional assay.

B1: Nanobody 087 (1E11-40GS-7C10) (VHH)
chain: EVQLVESGGGLVQPGGSLRLSCAASGSTRSVNPMAWFRQAPGRQREWVATISRSGYATYADSVKGRFTISGDNAKSSVYLQMNSLKPEDTAVYYCVTGTYWGQGTLVTVSSGGGGSGGGGSGGGGSGGGGSGGGGSGGGGSGGGGSGGGGSEVQLVESGGGLVQAGGSLRLSCTASGRTLSSYTMGWFRQAPGTEREFVAAMTRSGFNTYYADSVKGRFTISRDSTENTMALQMSSLKPEDTAVYYCTAGRGLTSYRADYWGQGTLVTVSS
Consider B1, for which the % inhibition in P3X63 cytotoxicity assay, extract 1/150 is 49%.

B2: Nanobody 083 (7C10-40GS-11B09) (VHH)
chain: EVQLVESGGGLVQAGGSLRLSCTASGRTLSSYTMGWFRQAPGTEREFVAAMTRSGFNTYYADSVKGRFTISRDSTENTMALQMSSLKPEDTAVYYCTAGRGLTSYRADYWGQGTLVTVSSGGGGSGGGGSGGGGSGGGGSGGGGSGGGGSGGGGSGGGGSEVQLVESGGGLVQAGGSLRLSCAASRLTFNHYNMGWFRQAPGKERERVAEVTWSGDKIYYVDSVKGRFTISRDNTPNPVYLYLQMNSLKPEDTAVYYCATAPRGLPYANGYWGQGTLVTVSS
As to B2, the % inhibition in P3X63 cytotoxicity assay, extract 1/150 was 61%.

B3: Nanobody 272 (11B09-40GS-10C05) (VHH)
chain: EVQLVESGGGLVQAGGSLRLSCAASRLTFNHYNMGWFRQAPGKERERVAEVTWSGDKIYYVDSVKGRFTISRDNTPNPVYLYLQMNSLKPEDTAVYYCATAPRGLPYANGYWGQGTLVTVSSGGGGSGGGGSGGGGSGGGGSGGGGSGGGGSGGGGSGGGGSEVQLVESGGGLVQPGGSLRLSCAASGSIFSINTMGWYRQAPGKQRDLVASITMNQVPNYADSVQGRFTISRDNVRNTVHLQMNAVKPEDTADYFCNAWVRSSGASPYTNYWGQGTLVTVSS
B3 displayed a % inhibition in P3X63 cytotoxicity assay, extract 1/150 of 66%.

B4: Nanobody 264 (1E11-40GS-2B02) (VHH)
chain: EVQLVESGGGLVQPGGSLRLSCAASGSTRSVNPMAWFRQAPGRQREWVATISRSGYATYADSVKGRFTISGDNAKSSVYLQMNSLKPEDTAVYYCVTGTYWGQGTLVTVSSGGGGSGGGGSGGGGSGGGGSGGGGSGGGGSGGGGSGGGGSEVQLVESGGGLVQPGDSLRLSCAASGRILSINNMVWYRQAPGKQRELVAHITSSGSTGYADSVKGRFTISRDNAKNTFYLQMTNLNPEDTAVYYCNCWVSSDSNAPLKNYWGQGTLVTVSS
For the molecule B4, the % inhibition in P3X63 cytotoxicity assay, extract 1/150 is 47%.

B5: Nanobody 283 (7E09-40GS-6B05) (VHH)
chain: EVQLVESGGGLVQAGGSLRLSCAASGRTFSSYIMGWFRQAPGKAREFVADITWGQRPYYADSVKGRFTISRDNAKNTVYLEMNSLKPEDTAVYYCAADLGVVIREEHAYWGQGTLVTVSSGGGGSGGGGSGGGGSGGGGSGGGGSGGGGSGGGGSGGGGSEVQLVESGGGLVQPGGSLRLSCAASGSIFSINTMGWYRQAPGKQRELVSTITSNLVPHYADSVQGRFTISRDNARNTVYLQMNSLKPQDTAHYYCNAWARSSGATPYTNYWGQGTLVTVSS
As to B5, the % inhibition in P3X63 cytotoxicity assay, extract 1/150 turned out to be 45%; the Efficacy (%), P3X63 cytotoxicity, MOI 12 was determined as 100%; the IC50 value (M), P3X63 cytotoxicity, MOI 12 was 7.6e-11 M; the Ratio (IC50 Fab 13.37/IC50 Nanobody), A549 cytotoxicity was 1 fold.

B6: Nanobody 302 (5H01-40GS-7C10) (VHH)
chain: EVQLVESGGGLVQPGGSLRLSCAASGSTLDYYAIGWFRQAPGKEREGVSCTSNSGSTYYGGSVKGRFTASRDNAKNTVYLQMNSLRPEDTAVYYCVATIGCATLGGTLDVQRYYYRGQGTLVTVSSGGGGSGGGGSGGGGSGGGGSGGGGSGGGGSGGGGSGGGGSEVQLVESGGGLVQAGGSLRLSCTASGRTLSSYTMGWFRQAPGTEREFVAAMTRSGFNTYYADSVKGRFTISRDSTENTMALQMSSLKPEDTAVYYCTAGRGLTSYRADYWGQGTLVTVSS
Take B6: the % inhibition in P3X63 cytotoxicity assay, extract 1/150 is 68%.

B7: Nanobody 308 (6B05-40GS-1E11) (VHH)
chain: EVQLVESGGGLVQPGGSLRLSCAASGSIFSINTMGWYRQAPGKQRELVSTITSNLVPHYADSVQGRFTISRDNARNTVYLQMNSLKPQDTAHYYCNAWARSSGATPYTNYWGQGTLVTVSSGGGGSGGGGSGGGGSGGGGSGGGGSGGGGSGGGGSGGGGSEVQLVESGGGLVQPGGSLRLSCAASGSTRSVNPMAWFRQAPGRQREWVATISRSGYATYADSVKGRFTISGDNAKSSVYLQMNSLKPEDTAVYYCVTGTYWGQGTLVTVSS
As for B7, the % inhibition in P3X63 cytotoxicity assay, extract 1/150 was determined as 57%; the Efficacy (%), P3X63 cytotoxicity, MOI 12 amounted to 100%; the IC50 value (M), P3X63 cytotoxicity, MOI 12 was determined as 1.8e-10 M; the Ratio (IC50 Fab 13.37/IC50 Nanobody), A549 cytotoxicity came out at 0.3 fold.

B8: Nanobody 260 (1E11-40GS-2B10) (VHH)
chain: EVQLVESGGGLVQPGGSLRLSCAASGSTRSVNPMAWFRQAPGRQREWVATISRSGYATYADSVKGRFTISGDNAKSSVYLQMNSLKPEDTAVYYCVTGTYWGQGTLVTVSSGGGGSGGGGSGGGGSGGGGSGGGGSGGGGSGGGGSGGGGSEVQLVESGGGLVQPGGSLRLSCAASGSIFSINNMGWYRQAPGKQRELVTVVTSNLITTYADSVKGRFTISRDNAKNTVYLQMNSLKPEDTAVYYCNAWARSVGSVPYSQFWGQGTLVTVSS
Take B8: the % inhibition in P3X63 cytotoxicity assay, extract 1/150 was 57%.

B9: Fab 26.24 (Fab, V domains shown)
VH: EVQLVESGGGVVQPGRSLRLSCAASGFTFSNYPMHWVRQAPGKGLEWVAVISYDGSEKWYADSVKGRFTISRDNSKNTLYLEMNSLRPEDTAVYYCARNRGDIYYDFTYAMDIWGQGTTVTVSS
VL: DIQLTQSPSTLSASVGDSVTITCRASEGVDRWLAWYQQKPGRAPKLLIYDASTLQSGVPSRFSGSGSGTEFSLTISSLQPDDVATYYCQHFWGTPYTFGQGTKLEIKR
As for B9, the % inhibition, P3X63 cytotoxicity assay, MOI 1.5 was 100%; the % inhibition, P3X63 cytotoxicity assay, MOI 4 stood at 100%; the IC50 (nM), P3X63 cytotoxicity assay, MOI 1.5 came to 34 nM; the IC50 (nM), P3X63 cytotoxicity assay, MOI 4 turned out to be 48 nM.

B10: Nanobody 258 (13F07-40GS-14E10) (VHH)
chain: EVQLVESGGGLVQAGGSLRLSCAASGNTFSTNPMYWYRQAEGKQRELVASISSRGITNYADSVRGRFSISRDNTKDTVYLQMNSLKPEDTAVYYCRLASLSSGTVYWGKGTLVTVSSGGGGSGGGGSGGGGSGGGGSGGGGSGGGGSGGGGSGGGGSEVQLVESGGGLVQPGGSLRLSCAASGRIFSINTMGWYRQAPGKQRELVAGVTINAITNYADSVKGRFTISRDNAKNTVWLQMNSLKPEDTAVYYCHAWARSSGSAPYSQNWGQGTLVTVSS
With B10, the % inhibition in P3X63 cytotoxicity assay, extract 1/150 was found to be 69%; the Efficacy (%), P3X63 cytotoxicity, MOI 12 worked out at 100%; the IC50 value (M), P3X63 cytotoxicity, MOI 12 was 9e-11 M; the Ratio (IC50 Fab 13.37/IC50 Nanobody), A549 cytotoxicity is 1 fold.

B11: Nanobody 269 (6B05-40GS-13F07) (VHH)
chain: EVQLVESGGGLVQPGGSLRLSCAASGSIFSINTMGWYRQAPGKQRELVSTITSNLVPHYADSVQGRFTISRDNARNTVYLQMNSLKPQDTAHYYCNAWARSSGATPYTNYWGQGTLVTVSSGGGGSGGGGSGGGGSGGGGSGGGGSGGGGSGGGGSGGGGSEVQLVESGGGLVQAGGSLRLSCAASGNTFSTNPMYWYRQAEGKQRELVASISSRGITNYADSVRGRFSISRDNTKDTVYLQMNSLKPEDTAVYYCRLASLSSGTVYWGKGTLVTVSS
B11: the % inhibition in P3X63 cytotoxicity assay, extract 1/150 was 41%; the Efficacy (%), P3X63 cytotoxicity, MOI 12 was 100%; the IC50 value (M), P3X63 cytotoxicity, MOI 12 amounted to 8.2e-10 M; the Ratio (IC50 Fab 13.37/IC50 Nanobody), A549 cytotoxicity amounted to 1 fold.
